The values that follow come from patent publication US20140274782A1, “AFFINITY REAGENTS AND METHODS FOR DETECTION, PURIFICATION, AND PROTEOMIC ANALYSIS OF METHYLATED PROTEINS” (The Board of Trustees of the Leland Stanford Junior …, priority 2013, published 2014).

The test system of one experiment is 3×MBT domain of L3MBTL1. Put plainly: Triple SILAC pull-down, 3xMBT/3xMBTD355N ratio (cytoplasmic, nuclear and chromatin fractions of 293T cells).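 Note: proteins quantified with MaxQuant, requiring at least two unique peptides and quantification in both label directions, normalized to the mean of proteins from a digested loading control.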 Format: binding, human. Conditions: SILAC ratio, pull-down by 3xMBT vs 3xMBTD355N, 293T cells.
Another experiment deals with T1, G9a and GLP (Homo sapiens, UniProt Q96KQ7+Q9H9B1).
T1 sequence (Q96KQ7 2-1210 limits assumed): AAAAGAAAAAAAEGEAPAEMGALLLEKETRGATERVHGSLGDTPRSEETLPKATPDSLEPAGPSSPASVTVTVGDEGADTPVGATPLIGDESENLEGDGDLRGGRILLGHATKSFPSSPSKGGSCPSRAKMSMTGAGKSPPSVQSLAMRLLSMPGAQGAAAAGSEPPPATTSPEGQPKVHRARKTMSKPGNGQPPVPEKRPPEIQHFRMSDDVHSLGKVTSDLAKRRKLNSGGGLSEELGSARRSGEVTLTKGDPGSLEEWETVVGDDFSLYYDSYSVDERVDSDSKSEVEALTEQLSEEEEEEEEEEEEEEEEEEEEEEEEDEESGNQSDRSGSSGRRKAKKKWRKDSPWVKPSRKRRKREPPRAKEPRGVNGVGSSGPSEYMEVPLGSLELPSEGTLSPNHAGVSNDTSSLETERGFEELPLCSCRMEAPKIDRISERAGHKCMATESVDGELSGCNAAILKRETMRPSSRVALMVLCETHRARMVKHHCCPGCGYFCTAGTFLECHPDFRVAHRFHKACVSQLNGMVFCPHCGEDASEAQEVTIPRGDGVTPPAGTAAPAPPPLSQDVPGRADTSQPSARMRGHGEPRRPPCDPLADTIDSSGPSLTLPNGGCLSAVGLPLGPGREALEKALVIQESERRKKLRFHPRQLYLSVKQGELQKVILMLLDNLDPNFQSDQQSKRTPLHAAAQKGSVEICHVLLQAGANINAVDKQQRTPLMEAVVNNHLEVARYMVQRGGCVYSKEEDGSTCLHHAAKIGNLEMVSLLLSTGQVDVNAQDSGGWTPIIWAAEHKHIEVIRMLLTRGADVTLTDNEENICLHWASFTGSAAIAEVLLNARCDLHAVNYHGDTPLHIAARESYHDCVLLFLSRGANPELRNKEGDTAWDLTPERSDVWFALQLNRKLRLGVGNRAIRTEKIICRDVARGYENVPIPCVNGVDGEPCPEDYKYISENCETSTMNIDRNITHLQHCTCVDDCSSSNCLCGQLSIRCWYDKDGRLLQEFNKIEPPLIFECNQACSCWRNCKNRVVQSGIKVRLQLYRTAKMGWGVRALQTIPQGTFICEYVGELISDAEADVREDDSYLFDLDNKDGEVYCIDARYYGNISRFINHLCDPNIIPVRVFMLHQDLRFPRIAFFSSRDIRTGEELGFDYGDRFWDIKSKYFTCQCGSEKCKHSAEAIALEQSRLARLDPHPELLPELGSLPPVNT
T1 sequence (Q9H9B1 2-1298 limits assumed): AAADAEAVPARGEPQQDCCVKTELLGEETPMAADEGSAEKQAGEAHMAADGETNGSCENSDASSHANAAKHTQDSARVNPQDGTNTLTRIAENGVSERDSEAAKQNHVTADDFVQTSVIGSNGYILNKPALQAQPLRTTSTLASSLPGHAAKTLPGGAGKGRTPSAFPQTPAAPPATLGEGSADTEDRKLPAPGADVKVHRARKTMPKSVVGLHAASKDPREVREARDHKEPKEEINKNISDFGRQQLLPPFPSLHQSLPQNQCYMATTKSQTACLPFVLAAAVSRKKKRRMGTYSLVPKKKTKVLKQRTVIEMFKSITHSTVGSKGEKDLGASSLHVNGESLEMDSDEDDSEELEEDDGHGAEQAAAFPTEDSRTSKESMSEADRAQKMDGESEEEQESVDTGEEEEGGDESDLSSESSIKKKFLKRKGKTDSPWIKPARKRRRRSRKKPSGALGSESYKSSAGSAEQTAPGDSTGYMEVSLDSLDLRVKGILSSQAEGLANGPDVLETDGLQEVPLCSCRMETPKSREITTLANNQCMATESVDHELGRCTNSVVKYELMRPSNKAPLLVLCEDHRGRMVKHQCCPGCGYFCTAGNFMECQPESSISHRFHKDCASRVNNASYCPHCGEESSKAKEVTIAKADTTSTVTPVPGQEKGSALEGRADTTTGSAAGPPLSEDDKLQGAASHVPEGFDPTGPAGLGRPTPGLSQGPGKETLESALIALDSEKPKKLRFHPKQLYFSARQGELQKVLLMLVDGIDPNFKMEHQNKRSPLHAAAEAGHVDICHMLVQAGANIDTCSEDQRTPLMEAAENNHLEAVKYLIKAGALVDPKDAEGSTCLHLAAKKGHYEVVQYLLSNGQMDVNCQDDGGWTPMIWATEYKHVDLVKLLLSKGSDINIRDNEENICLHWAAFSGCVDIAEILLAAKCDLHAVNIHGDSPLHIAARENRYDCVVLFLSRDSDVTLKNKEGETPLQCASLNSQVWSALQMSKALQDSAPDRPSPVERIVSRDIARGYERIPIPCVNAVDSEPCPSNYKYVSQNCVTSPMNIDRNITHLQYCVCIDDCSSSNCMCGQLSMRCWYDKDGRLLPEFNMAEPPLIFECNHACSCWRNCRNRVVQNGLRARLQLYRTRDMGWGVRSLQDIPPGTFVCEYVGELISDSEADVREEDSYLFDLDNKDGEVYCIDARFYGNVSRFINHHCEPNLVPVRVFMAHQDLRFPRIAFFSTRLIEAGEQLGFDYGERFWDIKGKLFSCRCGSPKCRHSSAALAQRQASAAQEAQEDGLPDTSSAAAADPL
Put plainly: Triple SILAC pull-down after UNC0638 treatment of 293T cells, DMSO/UNC0638 ratio of protein captured by 3×MBT.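 Note: mass spectrometry (Q-Exactive) SILAC quantitation, DMSO/UNC0638 ratio computed after subtracting 3×MBTD355N mutant pull-down background, only proteins with at least twofold 3×MBT over mutant signal considered.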 Format: cell-based. Also on record: cells were treated for 24 hours with UNC0638 at 2.5 μM or DMSO vehicle control; endogenous in cells; host or cells: HEK 293T. Particulars: SILAC ratio of protein captured by 3xMBT, 293T cells treated 24 hours with UNC0638 at 2.5 μM or DMSO.

B1: Cytoplasmic FMR1-interacting protein 1 (protein, UniProt Q7L576 1-1253, looked up)
Cytoplasmic FMR1-interacting …: MAAQVTLEDALSNVDLLEELPLPDQQPCIEPPPSSLLYQPNFNTNFEDRNAFVTGIARYIEQATVHSSMNEMLEEGQEYAVMLYTWRSCSRAIPQVKCNEQPNRVEIYEKTVEVLEPEVTKLMNFMYFQRNAIERFCGEVRRLCHAERRKDFVSEAYLITLGKFINMFAVLDELKNMKCSVKNDHSAYKRAAQFLRKMADPQSIQESQNLSMFLANHNKITQSLQQQLEVISGYEELLADIVNLCVDYYENRMYLTPSEKHMLLKVMGFGLYLMDGSVSNIYKLDAKKRINLSKIDKYFKQLQVVPLFGDMQIELARYIKTSAHYEENKSRWTCTSSGSSPQYNICEQMIQIREDHMRFISELARYSNSEVVTGSGRQEAQKTDAEYRKLFDLALQGLQLLSQWSAHVMEVYSWKLVHPTDKYSNKDCPDSAEEYERATRYNYTSEEKFALVEVIAMIKGLQVLMGRMESVFNHAIRHTVYAALQDFSQVTLREPLRQAIKKKKNVIQSVLQAIRKTVCDWETGHEPFNDPALRGEKDPKSGFDIKVPRRAVGPSSTQLYMVRTMLESLIADKSGSKKTLRSSLEGPTILDIEKFHRESFFYTHLINFSETLQQCCDLSQLWFREFFLELTMGRRIQFPIEMSMPWILTDHILETKEASMMEYVLYSLDLYNDSAHYALTRFNKQFLYDEIEAEVNLCFDQFVYKLADQIFAYYKVMAGSLLLDKRLRSECKNQGATIHLPPSNRYETLLKQRHVQLLGRSIDLNRLITQRVSAAMYKSLELAIGRFESEDLTSIVELDGLLEINRMTHKLLSRYLTLDGFDAMFREANHNVSAPYGRITLHVFWELNYDFLPNYCYNGSTNRFVRTVLPFSQEFQRDKQPNAQPQYLHGSKALNLAYSSIYGSYRNFVGPPHFQVICRLLGYQGIAVVMEELLKVVKSLLQGTILQYVKTLMEVMPKICRLPRHEYGSPGILEFFHHQLKDIVEYAELKTVCFQNLREVGNAILFCLLIEQSLSLEEVCDLLHAAPFQNILPRVHVKEGERLDAKMKRLESKYAPLHLVPLIERLGTPQQIAIAREGDLLTKERLCCGLSMFEVILTRIRSFLDDPIWRGPLPSNGVMHVDECVEFHRLWSAMQFVYCIPVGTHEFTVEQCFGDGLHWAGCMIIVLLGQQRRFAVLDFCYHLLKVQKHDGKDEIIKNVPLKKMVERIRKFQILNDEIITILDKYLKSGDGEGTPVEHVRCFQPPIHQSLASS
As for B1, in the experiment with 3×MBT domain of L3MBTL1, the “Protein Ratios 3xMBT/D355N” value stood at 3.4. The “Protein Ratios DMSO/UNC0638” value in the experiment with G9a and GLP was 1.4.

B2: Probable ATP-dependent RNA helicase DDX46 (protein, UniProt Q7L014 2-1031, looked up)
Probable ATP-dependent RNA …: GRESRHYRKRSASRGRSGSRSRSRSPSDKRSKRGDDRRSRSRDRDRRRERSRSRDKRRSRSRDRKRLRRSRSRERDRSRERRRSRSRDRRRSRSRSRGRRSRSSSPGNKSKKTENRSRSKEKTDGGESSKEKKKDKDDKEDEKEKDAGNFDQNKLEEEMRKRKERVEKWREEQRKKAMENIGELKKEIEEMKQGKKWSLEDDDDDEDDPAEAEKEGNEMEGEELDPLDAYMEEVKEEVKKFNMRSVKGGGGNEKKSGPTVTKVVTVVTTKKAVVDSDKKKGELMENDQDAMEYSSEEEEVDLQTALTGYQTKQRKLLEPVDHGKIEYEPFRKNFYVEVPELAKMSQEEVNVFRLEMEGITVKGKGCPKPIKSWVQCGISMKILNSLKKHGYEKPTPIQTQAIPAIMSGRDLIGIAKTGSGKTIAFLLPMFRHIMDQRSLEEGEGPIAVIMTPTRELALQITKECKKFSKTLGLRVVCVYGGTGISEQIAELKRGAEIIVCTPGRMIDMLAANSGRVTNLRRVTYVVLDEADRMFDMGFEPQVMRIVDNVRPDRQTVMFSATFPRAMEALARRILSKPIEVQVGGRSVVCSDVEQQVIVIEEEKKFLKLLELLGHYQESGSVIIFVDKQEHADGLLKDLMRASYPCMSLHGGIDQYDRDSIINDFKNGTCKLLVATSVAARGLDVKHLILVVNYSCPNHYEDYVHRAGRTGRAGNKGYAYTFITEDQARYAGDIIKALELSGTAVPPDLEKLWSDFKDQQKAEGKIIKKSSGFSGKGFKFDETEQALANERKKLQKAALGLQDSDDEDAAVDIDEQIESMFNSKKRVKDMAAPGTSSVPAPTAGNAEKLEIAKRLALRINAQKNLGIESQDVMQQATNAILRGGTILAPTVSAKTIAEQLAEKINAKLNYVPLEKQEEERQDGGQNESFKRYEEELEINDFPQTARWKVTSKEALQRISEYSEAAITIRGTYFPPGKEPKEGERKIYLAIESANELAVQKAKAEITRLIKEELIRLQNSYQPTNKGRYKVL
Turning to B2, the “Protein Ratios 3xMBT/D355N” value in the experiment on 3×MBT domain of L3MBTL1 is 5.2. In the experiment with G9a and GLP, the “Protein Ratios DMSO/UNC0638” value came out at 1.4.
